Assay results taken from PMC11429872 (bioRxiv, 2024).

Biological target: F-actin (rabbit, UniProt P68135 1-377)
Assay: co-sedimentation

Kd | Binder
24.6 ± 12 µM | β-III-spectrin-FLAG fragment (amino acids 1-1066), wild-type (domain or fragment) MSSTLSPTDFDSLEIQGQYSDINNRWDLPDSDWDNDSSSARLFERSRIKALADEREAVQKKTFTKWVNSHLARVTCRVGDLYSDLRDGRNLLRLLEVLSGEILPKPTKGRMRIHCLENVDKALQFLKEQKVHLENMGSHDIVDGNHRLTLGLVWTIILRFQIQDISVETEDNKEKKSAKDALLLWCQMKTAGYPNVNVHNFTTSWRDGLAFNAIVHKHRPDLLDFESLKKCNAHYNLQNAFNLAEKELGLTKLLDPEDVNVDQPDEKSIITYVATYYHYFSKMKALAVEGKRIGKVLDHAMEAERLVEKYESLASELLQWIEQTIVTLNDRQLANSLSGVQNQLQSFNSYRTVEKPPKFTEKGNLEVLLFTIQSKLRANNQKVYTPREGRLISDINKAWERLEKAEHERELALRTELIRQEKLEQLAARFDRKAAMRETWLSENQRLVSQDNFGLELAAVEAAVRKHEAIETDIVAYSGRVQAVDAVAAELAAERYHDIKRIAARQHNVARLWDFLRQMVAARRERLLLNLELQKVFQDLLYLMDWMEEMKGRLQSQDLGRHLAGVEDLLQLHELVEADIAVQAERVRAVSASALRFCNPGKEYRPCDPQLVSERVAKLEQSYEALCELAAARRARLEESRRLWRFLWEVGEAEAWVREQQHLLASADTGRDLTGALRLLNKHTALRGEMSGRLGPLKLTLEQGQQLVAEGHPGASQASARAAELQAQWERLEALAEERAQRLAQAASLYQFQADANDMEAWLVDALRLVSSPELGHDEFSTQALARQHRALEEEIRSHRPTLDALREQAAALPPTLSRTPEVQSRVPTLERHYEELQARAGERARALEAALALYTMLSEAGACGLWVEEKEQWLNGLALPERLEDLEVVQQRFETLEPEMNTLAAQITAVNDIAEQLLKANPPGKDRIVNTQEQLNHRWQQFRRLADGKKAALTSALSIQNYHLECTETQAWMREKTKVIESTQGLGNDLAGVLALQRKLAGTERDLEAIAARVGELTREANALAAGHPAQAVAINARLREVQTGWEDLRATMRRREESLGEARR
34.9 ± 14.4 µM | β-III-spectrin-FLAG fragment (amino acids 1-1066), R480W (domain or fragment) MSSTLSPTDFDSLEIQGQYSDINNRWDLPDSDWDNDSSSARLFERSRIKALADEREAVQKKTFTKWVNSHLARVTCRVGDLYSDLRDGRNLLRLLEVLSGEILPKPTKGRMRIHCLENVDKALQFLKEQKVHLENMGSHDIVDGNHRLTLGLVWTIILRFQIQDISVETEDNKEKKSAKDALLLWCQMKTAGYPNVNVHNFTTSWRDGLAFNAIVHKHRPDLLDFESLKKCNAHYNLQNAFNLAEKELGLTKLLDPEDVNVDQPDEKSIITYVATYYHYFSKMKALAVEGKRIGKVLDHAMEAERLVEKYESLASELLQWIEQTIVTLNDRQLANSLSGVQNQLQSFNSYRTVEKPPKFTEKGNLEVLLFTIQSKLRANNQKVYTPREGRLISDINKAWERLEKAEHERELALRTELIRQEKLEQLAARFDRKAAMRETWLSENQRLVSQDNFGLELAAVEAAVRKHEAIETDIVAYSGWVQAVDAVAAELAAERYHDIKRIAARQHNVARLWDFLRQMVAARRERLLLNLELQKVFQDLLYLMDWMEEMKGRLQSQDLGRHLAGVEDLLQLHELVEADIAVQAERVRAVSASALRFCNPGKEYRPCDPQLVSERVAKLEQSYEALCELAAARRARLEESRRLWRFLWEVGEAEAWVREQQHLLASADTGRDLTGALRLLNKHTALRGEMSGRLGPLKLTLEQGQQLVAEGHPGASQASARAAELQAQWERLEALAEERAQRLAQAASLYQFQADANDMEAWLVDALRLVSSPELGHDEFSTQALARQHRALEEEIRSHRPTLDALREQAAALPPTLSRTPEVQSRVPTLERHYEELQARAGERARALEAALALYTMLSEAGACGLWVEEKEQWLNGLALPERLEDLEVVQQRFETLEPEMNTLAAQITAVNDIAEQLLKANPPGKDRIVNTQEQLNHRWQQFRRLADGKKAALTSALSIQNYHLECTETQAWMREKTKVIESTQGLGNDLAGVLALQRKLAGTERDLEAIAARVGELTREANALAAGHPAQAVAINARLREVQTGWEDLRATMRRREESLGEARR
